In publication PMC3602351:

Target: human ALDH2 T244A substituted enzyme (human) (UniProt P05091)
Test: crystal structure

stoichiometry N: 4
Substance: human ALDH2 T244A substituted enzyme (from UniProt P05091 18-517)
